According to publication PMC3420887:

How the values were obtained:
[1] = target: T1, 6HisPrpR (PrpRMt) (Mycobacterium tuberculosis H37Rv) (UniProt O06581); assay: SPR; details: 50 mM Tris-HCl pH 7.5, 50 mM KCl, 10 mM MgCl2, 10% glycerol, 0.5 mM EDTA; […], SA chip)
T1 sequence: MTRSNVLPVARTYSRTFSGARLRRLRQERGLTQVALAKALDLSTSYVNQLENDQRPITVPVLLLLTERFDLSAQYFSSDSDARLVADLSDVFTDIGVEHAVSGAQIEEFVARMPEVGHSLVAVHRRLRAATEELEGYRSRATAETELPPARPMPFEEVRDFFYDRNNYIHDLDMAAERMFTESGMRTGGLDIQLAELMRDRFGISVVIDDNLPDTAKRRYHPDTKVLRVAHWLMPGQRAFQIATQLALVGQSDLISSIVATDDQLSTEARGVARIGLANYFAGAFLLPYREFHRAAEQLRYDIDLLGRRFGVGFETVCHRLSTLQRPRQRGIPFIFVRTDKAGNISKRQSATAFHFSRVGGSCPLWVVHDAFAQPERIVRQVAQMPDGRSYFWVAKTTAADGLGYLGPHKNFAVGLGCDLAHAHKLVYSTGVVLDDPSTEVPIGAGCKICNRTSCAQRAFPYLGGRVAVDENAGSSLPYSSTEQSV

[2] = target: T2, 6HisRamB (UniProt P9WMI1); assay: SPR; details: 50 mM Tris-HCl pH 7.5, 50 mM KCl, 10 mM MgCl2, 10% glycerol, 0.5 mM EDTA; […], SA chip)
T2 sequence: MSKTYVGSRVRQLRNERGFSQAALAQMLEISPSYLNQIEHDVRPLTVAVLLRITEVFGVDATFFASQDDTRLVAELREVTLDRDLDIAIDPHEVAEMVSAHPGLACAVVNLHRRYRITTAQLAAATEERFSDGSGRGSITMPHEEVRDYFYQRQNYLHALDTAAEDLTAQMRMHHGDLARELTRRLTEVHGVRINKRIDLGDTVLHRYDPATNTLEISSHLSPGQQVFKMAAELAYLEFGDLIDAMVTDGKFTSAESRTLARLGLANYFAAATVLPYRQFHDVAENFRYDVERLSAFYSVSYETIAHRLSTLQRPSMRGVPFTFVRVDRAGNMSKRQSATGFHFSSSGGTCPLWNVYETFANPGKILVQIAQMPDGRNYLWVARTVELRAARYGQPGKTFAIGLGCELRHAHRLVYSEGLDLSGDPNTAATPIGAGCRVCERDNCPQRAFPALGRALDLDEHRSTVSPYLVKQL

[3] = target: T1, 6HisPrpR (PrpRMt) (Mycobacterium tuberculosis H37Rv); assay: EMSA; details: 50 mM Tris-HCl pH 7.5, 50 mM KCl, 10 mM MgCl2, 10% glycerol, 0.5 mM EDTA; […], SA chip)
[4] = tested on: 6HisPrpR (PrpRMt) (Mycobacterium tuberculosis H37Rv); assay: SPR; details: 50 mM Tris-HCl pH 7.5, 50 mM KCl, 10 mM MgCl2, 10% glycerol, 0.5 mM EDTA; 25 C, 30 min (EMSA, footprinting); same buffer for SPR (BIAcore T3000, SA chip)
[5] = tested on: 6HisRamB; assay: SPR; details: 50 mM Tris-HCl pH 7.5, 50 mM KCl, 10 mM MgCl2, 10% glycerol, 0.5 mM EDTA; […], SA chip)

| Substance | Kd [1] [nM] | Kd [2] [nM] | binding [3] | Kd [4] [nM] | Kd [5] [nM] |
| --- | --- | --- | --- | --- | --- |
| GGCGGTCGAACACGTCGGGGTGACCGTCGGGCACGGGCATCAATTTTTTGTCGAGGCTCACGGCGTTCTCCCCATTTCCTCCTCGCGTGTACCTCAGGCTCACCCTTGAGTCCCGGTGCGAATCATGCCAACGCCGTGGCGGAAACACCAATCGCAGCACGCTTGCTAACTCTGCGAATGGCGTCTTCACAACACCCGGTACGCTCGGTTGGGTGTCCAAGACCTACGTCGGCTCGCGGGTCCGCCAACTGCCC (double strand) [pramB] | 32 | 328 | binds | – | – |
| GGGTGCCTCCGATCCGAGCTCGGACTCGGCAAGTACCGCCACTTTCATGACCGCGCGAGGTGGTGCGTCGGGAGCGCTACTGGTGTTCGTGTTCGCTGACGACATGTAGCGGGCAGCTCCTCTTCCGGGCGGTTCGTTTGCAAACGATACGCATGCTGTGTGTAGATTTCCCACCTCCCGACAGCCGAGACGACGACATGTGCTGGAGTTATTGCCTTCGACTTGACGGTTGATCGTTAGCACC (double strand) [pkstR] | 25 | – | binds | – | – |
| GGTGCTCCGCGCTCTTCGGGGTGCCGACGACAGACATAGACAACTCCTTAACGGTCTTTCATTGCCGAAAACGCTGACGCCCTACCGTCGTCCAGGCGGTGTCAACGGCGCAGCTTCACTGGTGTGCTAACTCGACCATGGCACAGCGTGTCAACGCTGGTCCACCCATTTCACTTGCGAATTTCGGCAACGGCCTGCGGACTTTTTGCAAATTTTGCGAAGTCGCCCAAAAACTGAACCGTTTCAGAAGCTACCCGCCAGTAACGACAAATCCGCAGGTAAACCCCC (double strand) [picl1] | – | – | binds | – | – |
| pkstR | – | – | – | 25 | – |
| pramB | – | – | – | 32 | 328 |
